The source of these data is article PMC12044017, “CDK4/6-mediated phosphorylation of DUB3 promotes YAP1 stability and hepatocellular carcinoma progression” (Cell Death Discovery, 2025).

For this test, the target named is T1, His-DUB3 (UniProt Q6R6M4 1-530).
T1 construct: deubiquitinase DUB3 (USP17L2), cloned into pET30a; the methods name only GST-DUB3 WT and His-YAP1
T1 sequence (looked up): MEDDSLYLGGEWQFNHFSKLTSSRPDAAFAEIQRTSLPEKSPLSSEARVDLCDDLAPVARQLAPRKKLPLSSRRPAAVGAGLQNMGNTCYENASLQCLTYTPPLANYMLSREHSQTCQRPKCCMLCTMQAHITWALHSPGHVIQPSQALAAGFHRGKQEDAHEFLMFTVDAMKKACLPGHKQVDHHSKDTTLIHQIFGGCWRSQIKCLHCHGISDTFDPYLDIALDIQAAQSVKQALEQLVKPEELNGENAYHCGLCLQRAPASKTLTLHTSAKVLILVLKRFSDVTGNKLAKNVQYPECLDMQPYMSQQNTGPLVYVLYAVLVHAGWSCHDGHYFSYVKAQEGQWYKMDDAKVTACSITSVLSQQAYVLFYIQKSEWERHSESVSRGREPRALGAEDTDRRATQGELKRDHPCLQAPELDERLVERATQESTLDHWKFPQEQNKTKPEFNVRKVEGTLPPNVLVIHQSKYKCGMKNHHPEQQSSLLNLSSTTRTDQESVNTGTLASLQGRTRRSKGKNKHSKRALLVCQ
In words: pull-down; GST-fusion protein on Pierce Glutathione agarose mixed with purified His-tagged protein at 4 °C for 2 hours; beads washed four times; western blot. The conditions noted are these: both partners purified. On the technique in general: In western blotting, separated proteins are transferred to a membrane and probed.

B1: GST-CDK4 (enzyme, UniProt P11802 1-303, looked up)
chain: MATSRYEPVAEIGVGAYGTVYKARDPHSGHFVALKSVRVPNGGGGGGGLPISTVREVALLRRLEAFEHPNVVRLMDVCATSRTDREIKVTLVFEHVDQDLRTYLDKAPPPGLPAETIKDLMRQFLRGLDFLHANCIVHRDLKPENILVTSGGTVKLADFGLARIYSYQMALTPVVVTLWYRAPEVLLQSTYATPVDMWSVGCIFAEMFRRKPLFCGNSEADQLGKIFDLIGLPPEDDWPRDVSLPRGAFPPRGPRPVQSVVPEMEESGAQLLLEMLTFNPHKRISAFRALQHSYLHKDEGNPE
notes: cyclin-dependent kinase 4 (CDK4); no cyclin partner is mentioned; also called cyclin-dependent kinase 4; source: bacterial-purified recombinant; GST-fusion proteins purified on Pierce Glutathione agarose
B1: the binding result was “binds”.
